The assay deals with T1, Mycobacterium tuberculosis DNA gyrase subunit A (Mycobacterium tuberculosis, UniProt P9WG47 1-838).
T1 construct: also called Mtb GyrA; Mtb gyrase subunit A
The assay is described as follows: SEC. The conditions noted are these: both partners purified.

Results on 1 molecule are retold here after publication PMC10731242, “Macromolecular crowding potently stimulates DNA supercoiling activity of Mycobacterium tuberculosis DNA gyrase” (The Journal of Biological Chemistry, 2023).

T1 sequence (P9WG47 whole entry): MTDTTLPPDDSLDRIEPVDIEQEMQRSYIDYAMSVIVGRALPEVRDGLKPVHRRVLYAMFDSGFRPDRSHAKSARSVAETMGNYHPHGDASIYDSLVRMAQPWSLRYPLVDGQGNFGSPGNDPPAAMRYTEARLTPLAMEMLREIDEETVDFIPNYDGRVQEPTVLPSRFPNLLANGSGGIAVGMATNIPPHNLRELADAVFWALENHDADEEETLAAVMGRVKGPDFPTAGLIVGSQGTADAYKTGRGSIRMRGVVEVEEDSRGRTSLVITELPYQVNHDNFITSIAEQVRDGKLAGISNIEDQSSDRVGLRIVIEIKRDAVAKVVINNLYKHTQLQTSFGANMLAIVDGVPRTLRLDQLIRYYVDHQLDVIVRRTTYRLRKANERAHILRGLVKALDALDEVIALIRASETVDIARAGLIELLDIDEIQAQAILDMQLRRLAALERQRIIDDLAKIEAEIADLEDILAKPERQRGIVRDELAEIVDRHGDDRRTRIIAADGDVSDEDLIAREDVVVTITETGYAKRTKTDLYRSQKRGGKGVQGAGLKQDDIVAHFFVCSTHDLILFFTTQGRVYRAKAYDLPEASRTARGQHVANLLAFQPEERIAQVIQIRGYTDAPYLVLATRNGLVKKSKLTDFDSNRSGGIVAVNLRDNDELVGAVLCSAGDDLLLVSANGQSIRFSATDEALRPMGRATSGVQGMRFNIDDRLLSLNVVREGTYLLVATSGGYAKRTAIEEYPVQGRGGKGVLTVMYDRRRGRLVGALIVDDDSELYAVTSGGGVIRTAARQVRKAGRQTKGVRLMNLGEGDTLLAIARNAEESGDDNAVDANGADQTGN

B1: Mycobacterium tuberculosis DNA gyrase subunit B (enzyme)
chain: MAAQKKKAQDEYGAASITILEGLEAVRKRPGMYIGSTGERGLHHLIWEVVDNAVDEAMAGYATTVNVVLLEDGGVEVADDGRGIPVATHASGIPTVDVVMTQLHAGGKFDSDAYAISGGLHGVGVSVVNALSTRLEVEIKRDGYEWSQVYEKSEPLGLKQGAPTKKTGSTVRFWADPAVFETTEYDFETVARRLQEMAFLNKGLTINLTDERVTQDEVVDEVVSDVAEAPKSASERAAESTAPHKVKSRTFHYPGGLVDFVKHINRTKNAIHSSIVDFSGKGTGHEVEIAMQWNAGYSESVHTFANTINTHEGGTHEEGFRSALTSVVNKYAKDRKLLKDKDPNLTGDDIREGLAAVISVKVSEPQFEGQTKTKLGNTEVKSFVQKVCNEQLTHWFEANPTDAKVVVNKAVSSAQARIAARKARELVRRKSATDIGGLPGKLADCRSTDPRKSELYVVEGDSAGGSAKSGRDSMFQAILPLRGKIINVEKARIDRVLKNTEVQAIITALGTGIHDEFDIGKLRYHKIVLMADADVDGQHISTLLLTLLFRFMRPLIENGHVFLAQPPLYKLKWQRSDPEFAYSDRERDGLLEAGLKAGKKINKEDGIQRYKGLGEMDAKELWETTMDPSVRVLRQVTLDDAAAADELFSILMGEDVDARRSFITRNAKDVRFLDV
notes: also called Mtb GyrB; gyrB
As for B1, the binding result is “binds”.
